# Measured values reported in publication PMC10840515.
# Read-outs that look alike come from different tables or passages of the source.
# Columns and labels:
# [1] = molecular target: HLA-DR1 (HLA-DRA*0101, HLA-DRB1*0101) (human); assay: ELISA
# [2] = molecular target: HLA-DR1 (HLA-DRA*0101, HLA-DRB1*0101) (human); assay: ELISA; remark: listed apart in the source
Substance,IC50 [1],IC50 [2]
SARS-CoV-2 Spike peptide S761-775 (Wuhan HU-1),> 10 µM,–
SARS-CoV-2 Spike peptide S486-505 (Omicron BA.1),–,0.754 µM
SARS-CoV-2 Spike peptide S761-775 (Omicron BA.1),–,6.78 µM
